From PMC3801112

How the values were obtained:
[1] = target: T1, PiCypA (cyclophilin A-like protein) (Piriformospora indica, UniProt C6KGV3 1-164); assay: ITC
[2] = target: T1, PiCypA (cyclophilin A-like protein); assay: ITC; remark: listed apart in the source

Row | Binder | Kd [1] | binding result [2]
1 | AUAGCCUCAACCG (ssRNA) [13 mer RNA] | 22.5 µM | 
2 | AAAAAAAAAAAAA (ssRNA) [13 mer poly-A RNA] |  | no binding
